The data set can be described thus: yeast display, Sf9 membrane polyspecificity reagent, FACS + sequencing; frameworks hold sequencing errors. Put shortly: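 Using colony PCR, genes from sorted yeast display clones were amplified, then sequenced on MiSeq at 2 × 250 and filtered by CDR length. The clones had been stained with 10% biotinylated, detergent-solubilized Sf9 membrane reagent for 1 hour at 4 °C and sorted by FACS into low and high (top ~1%) gates on anti-HA and streptavidin fluorescence. Polyreactivity labels come from the gate of origin.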
Turning to “QVQLVESGGGLVQAGFSLRLSCAASGNIYYKYAMGWYRQAPGKERELVAAITWRVVRTYYADSVKGRFTISRDNAKNTVYLQMNSLKPEDTAVYYCAALSRQSGDYWGQGTQVTVSS”, the “polyreactivity (PSR sort gate)” value was “high polyreactivity”.

With “QVQLVESGGGLVQAGGSLRLSCAASGNIFANYAMGWYRQAPGKERELVAAIRWSASRPYYADSVKGRFTISRDNAKNTVYLQMNSLKPEDTAVYYCAATIYTFWDYYYDYWGQGTQVTVSS”, the “polyreactivity (PSR sort gate)” value was “high polyreactivity”.

On to “QVQLVESGGGLVQAGGSLRLSCAASGRTFYRYAMGWYRQAPGNERELVAAISYSTTRTYYADSVKGRFTISRDNAKNTVYLQMNSLKPEDTAVYYCAAYGWTRFGYDYWGQGTQVTVSS”, for which the “polyreactivity (PSR sort gate)” value is “high polyreactivity”.

Regarding “QVQLVESGGGLVQAGGSLRLSCAASGRTFSNYAMGWYRQAPGKEREFVAGIRYNGGSTYYADSVKGRFTISRDNAKNTVYLQMNSLKPEDTAVYYCAAERWFYRSKFDYWGQGTQVTVSS”, the “polyreactivity (PSR sort gate)” value is on record as “high polyreactivity”.

As for “QVQLVESGGGLVQAGGSLRLSCASSGFTLGYYTMGWYRQAPGKESELVAAIRSNGGSTYYADSVKGRFTISRDNAKNTVYLQMNSLKPEDTAVYYCAARRWRYVGTRYDYWGQGTQVTVSS”, the “polyreactivity (PSR sort gate)” value is recorded as “high polyreactivity”.

For “QVQLVESGGGLVQAGGSLRLSCAASGPIFTSNAMGWYRQAPGKERELVAAISRRGTRTYYADSVKGRFTISRDNAKNTVYLQMNSLKPEDTAVYYCAATTGEQEYYWGQGTQVTVSS”, the “polyreactivity (PSR sort gate)” value is “high polyreactivity”.

On to “QVQLVESGGGLVQAGGSLRLSCAASGSNFLYNAMGWYRQAPGKERELVAAITQGGGSTYYADSVKGRFTISLDIAKNTVYLQMISLKPEDTAVYYCNKASFYDAHRLDYWGQGTQVTVSS”, for which the “polyreactivity (PSR sort gate)” value was “high polyreactivity”.

As for “QVQLVESGGRLVQAGGSLRLSCAASGFTFSEYAMRWYRPAPGKVRELVAAINDGGGSTYYADSVKGRFTISRDNAKNTVYLQMNSLKPEDTAVYYCAVEQRLRYGYDYWGQGTQVTVSS”, the “polyreactivity (PSR sort gate)” value is “high polyreactivity”.

For “QVQLVESGGGLVQAGGSLRLSCAASGSIFGGYAMGWYRQAPVKERELVARIRVSGGRTYYSDSVKGRFTISRDNAKNTVYLQRNSLKPEDTAVYYCNALLAGRRVARGYDSWGQGTQVTVSS”, the “polyreactivity (PSR sort gate)” value is reported as “high polyreactivity”.

With “QVQLVESGGGLVQAGGSLRLSCAASGIIFSEYAMGWSRQAPGKERELVAAITKSGGSTYYADSVKGRFTISRDNAKNTVYLQMNSLKPEDTAVYYCAKKTPYIRGKDNYWGQGTQVNVSS”, the “polyreactivity (PSR sort gate)” value is reported as “low polyreactivity”.

On to “QVQLVESGGGLVQAGGSLRLSCAASGRTFTTYAMGWYRQAPGKERELVAAISDTGGITYYADSVKGRFTISRDNAKNTVYLQMNSLKPEDTAVYYCNAESYRAPYDYWGQCTQVTVSS”, for which the “polyreactivity (PSR sort gate)” value is “low polyreactivity”.

Take “QVQLVESGGGLVQAGGSLRLSCAASGSTFYRYAMGWYRQAPGKERELVADITRSGDSTYYADSVKGRFTISRDNAKNTVYLQMNSLKPEDTAVYYCAREYPTIRYRLGYWGQGTQVTVSS”: the “polyreactivity (PSR sort gate)” value is recorded as “low polyreactivity”.

“QVQLVESGGGLVLAGGSLRLSCAASGSTFYAHAMGWYRQARGKERELVAAITSGGSTNYADSVKGRFTISRDNAKNTVNLQINSLKPEDTAVYYCATPVNRERHAEDYWGQGTQVTVSS”: the “polyreactivity (PSR sort gate)” value is on record as “low polyreactivity”.

Regarding “QVQLVESGGGLVQAGGSLRLSCAASGRTFYPNVMGWYRQAPGKERELVAAISRGGSTYYADSVKGRFTISRDNAKNTVYLQMNSLKPEDTAVYYCAATHYGHSISYWFDYWGQGTQVTVSS”, the “polyreactivity (PSR sort gate)” value was “high polyreactivity”.

For the sequence “QVQLVESGGGLVQAGGSLRLSCAASGSIFSWYAMGWYRQAPGKERELVAAITWTGGSTYYADSVKGRFTISRDNAKNTVYLQMNSLKPEDTAVYYCAARRVVYRYYWYSAYDYWGQGTQVTVSS”, the “polyreactivity (PSR sort gate)” value is listed as “high polyreactivity”.

As to “QVQLVESGGGLVQAGGSLRLSCAASGRTFRTYVMGWYRQAPGKEREFVAGITWSSGSTRYADSVKGRFTISRDNAKNTVYLQMNSLKPEDTAVYYCAAKRWPGTDGYWGQGTQVTVSS”, the “polyreactivity (PSR sort gate)” value is on record as “high polyreactivity”.

For the origin of these results see the nanobody polyreactivity screen of Harvey et al. (2022).
